The values below are quoted from earlier work in paper PMC11794116.

pKd: −log10 of the molar value.

For orientation: pKd means the negative decadic logarithm of the Kd, by convention in mol/L.

The series concerns the target CD16a (F176) (Homo sapiens) (UniProt P08637).

Sequence of CD16a (F176) (Homo sapiens) (P08637 17-208): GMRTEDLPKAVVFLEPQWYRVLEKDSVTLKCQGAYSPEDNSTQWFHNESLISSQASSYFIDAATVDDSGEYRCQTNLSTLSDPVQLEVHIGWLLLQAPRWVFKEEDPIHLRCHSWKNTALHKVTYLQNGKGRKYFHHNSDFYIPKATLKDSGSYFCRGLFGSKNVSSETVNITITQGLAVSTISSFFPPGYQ

Regarding trastuzumab Fc, the pKd was 5.97.
